B1: Bol3-Strep [S. cerevisiae] / dihydroxyacid dehydratase (Ilv3) [S. cerevisiae (endogenous in yeast mitochondria)] (parent complex)
chain 1: MKLPQTMLRSISVKHVRWPRILTGSKLWYSTQMAMTPEEKMITDKLQQELEPEVCKVQDVSGGCGSMFAINITSKKFNGLSLIKQHQLVNRILRDDISRWHGLQLTTKKSTGKGPASS
chain 2: not shown
B2: Bol1-Strep [S. cerevisiae] / Lys4 [S. cerevisiae (endogenous in yeast mitochondria)] (parent complex)
chain 1: MFKRAMSTDGPVARTILKRLECGFPDYKNFAFGLYNDSHKHKGHAGVQGNVSAETHFRIEMVSKKFEGLKLPQRHRMVYSLLQDEMAQANGIHALQLSLKTPQEYESKAK
chain 2: LKGQNLTEKIVQSYAVNLPEGKVVHSGDYVSIKPAHCMSHDNSWPVALKFMGLGATKIKNPSQIVTTLDHDIQNKSEKNLTKYKNIENFAKKHHIDHYPAGRGIGHQIMIEEGYAFPLNMTVASDSHSNTYGGLGSLGTPIVRTDAAAIWATGQTWWQIPPVAQVELKGQLPQGVSGKDIIVALCGLFNNDQVLNHAIEFTGDSLNALPIDHRLTIANMTTEWGALSGLFPVDKTLIDWYKNRLQKLGTNNHPRINPKTIRALEEKAKIPKADKDAHYAKKLIIDLATLTHYVSGPNSVKVSNTVQDLSQQDIKINKAYLVSCTNSRLSDLQSAADVVCPTGDLNKVNKVAPGVEFYVAAASSEIEADARKSGAWEKLLKAGCIPLPSGCGPCIGLGAGLLEPGEVGISATNRNFKGRMGSKDALAYLASPAVVAASAVLGKISSPAEVLSTSEIPFSGVKTEIIENPVVEEEVNAQTEAPKQSVEILEGFPREFSGELVLCDADNINTDGIYPGKYTYQDDVPKEKMAQVCMENYDAEFRTKVHPGDIVVSGFNFGTGSSREQAATALLAKGINLVVSGSFGNIFSRNSINNALLTLEIPALIKKLREKYQGAPKELTRRTGWFLKWDVADAKVVVTEGSLDGPVILEQKVGELGKNLQEIIVKGGLEGWVKSQL
B3: Bol1-Strep [S. cerevisiae] / Lip5 [S. cerevisiae (endogenous in yeast mitochondria)] (parent complex)
chain 1: B2 chain 1
chain 2: SSTIRCGTSATRPIRSNALNTDSDNASVRVPVGNSTEVENATSQLTGTSGKRRKGNRKRITEFKDALNLGPSFADFVSGKASKMILDPLEKARQNTEEAKKLPRWLKVPIPKGTNYHKLKGDVKELGLSTVCEEARCPNIGECWGGKDKSKATATIMLLGDTCTRGCRFCSVKTNRTPSKPDPMEPENTAEAIKRWGLGYVVLTTVDRDDLVDGGANHLAETVRKIKQKAPNTLVETLSGDFRGDLKMVDIMAQCGLDVYAHNLETVESLTPHVRDRRATYRQSLSVLERAKATVPSLITKTSIMLGLGETDEQITQTLKDLRNIQCDVVTFGQYMRPTKRHMKVVEYVKPEKFDYWKERALEMGFLYCASGPLVRSSYKAGEAFIENVLKKRNMK
B4: Bol1-Strep [S. cerevisiae] / Sdh2 [S. cerevisiae (endogenous in yeast mitochondria)] (parent complex)
chain 1: B2 chain 1
chain 2: TATTAAATHTPRLKTFKVYRWNPDEPSAKPHLQSYQVDLNDCGPMVLDALLKIKDEQDSTLTFRRSCREGICGSCAMNIGGRNTLACICKIDQNESKQLKIYPLPHMFIVKDLVPDLTNFYQQYKSIQPYLQRSSFPKDGTEVLQSIEDRKKLDGLYECILCACCSTSCPSYWWNQEQYLGPAVLMQAYRWLIDSRDQATKTRKAMLNNSMSLYRCHTIMNCTRTCPKGLNPGLAIAEIKKSLAFA
B5: Bol1-Strep [S. cerevisiae] / Bio2 [S. cerevisiae (endogenous in yeast mitochondria)] (parent complex)
chain 1: B2 chain 1
chain 2: TKYATNAAVKSTTASSEASTLGALQYALSLDEPSHSWTKSQLKEIYHTPLLELTHAAQLQHRKWHDPTKVQLCTLMNIKSGGCSEDCKYCAQSSRNDTGLKAEKMVKVDEVIKEAEEAKRNGSTRFCLGAAWRDMKGRKSAMKRIQEMVTKVNDMGLETCVTLGMVDQDQAKQLKDAGLTAYNHNIDTSREHYSKVITTRTYDDRLQTIKNVQESGIKACTGGILGLGESEDDHIGFIYTLSNMSPHPESLPINRLVAIKGTPMAEELADPKSKKLQFDEILRTIATARIVMPKAIIRLAAGRYTMKETEQFVCFMAGCNSIFTGKKMLTTMCNGWDEDKAMLAKWGLQPMEAFKYDRS
B6: Bol1-Strep [S. cerevisiae] / dihydroxyacid dehydratase (Ilv3) [S. cerevisiae (endogenous in yeast mitochondria)] (parent complex)
chain 1: B2 chain 1
chain 2: not shown
B7: Bol1-Strep [S. cerevisiae] / Aco2 [S. cerevisiae (endogenous in yeast mitochondria)] (parent complex)
chain 1: B2 chain 1
chain 2: ATHANMFPSVSKNFQTKVPPYAKLLTNLDKIKQITNNAPLTLAEKILYSHLCDPEESITSSDLSTIRGNKYLKLNPDRVAMQDASAQMALLQFMTTGLNQTSVPASIHCDHLIVGKDGETKDLPSSIATNQEVFDFLESCAKRYGIQFWGPGSGIIHQIVLENFSAPGLMMLGTDSHTPNAGGLGAIAIGVGGADAVDALTGTPWELKAPKILGVKLTGKLNGWSTPKDVITKLAGLLTVRGGTGYIVEYFGEGVSTLSCTGMATICNMGAEIGATTSTFPYQEAHKRYLQATNRAEVAEAADVALNKFNFLRADKDAQYDKVIEIDLSAIEPHVNGPFTPDLSTPISQYAEKSLKENWPQKVSAGLIGSCTNSSYQDMSRVVDLVKQASKAGLKPRIPFFVTPGSEQIRATLERDGIIDIFQENGAKVLANACGPCIGQWNREDVSKTSKETNTIFTSFNRNFRARNDGNRNTMNFLTSPEIVTAMSYSGDAQFNPLTDSIKLPNGKDFKFQPPKGDELPKRGFEHGRDKFYPEMDPKPDSNVEIKVDPNSDRLQLLEPFKPWNGKELKTNVLLKVEGKCTTDHISAAGVWLKYKGHLENISYNTLIGAQNKETGEVNKAYDLDGTEYDIPGLMMKWKSDGRPWTVIAEHNYGEGSAREHAALSPRFLGGEILLVKSFARIHETNLKKQGVLPLTFANESDYDKISSGDVLETLNLVDMIAKDGNNGGEIDVKITKPNGESFTIKAKHTMSKDQIDFFKAGSAINYIGNIRRNE
B8: Bol1-Strep [S. cerevisiae] / Aco1 [S. cerevisiae (endogenous in yeast mitochondria)] (parent complex)
chain 1: B2 chain 1
chain 2: ATVSNLTRDSKVNQNLLEDHSFINYKQNVETLDIVRKRLNRPFTYAEKILYGHLDDPHGQDIQRGVSYLKLRPDRVACQDATAQMAILQFMSAGLPQVAKPVTVHCDHLIQAQVGGEKDLKRAIDLNKEVYDFLASATAKYNMGFWKPGSGIIHQIVLENYAFPGALIIGTDSHTPNAGGLGQLAIGVGGADAVDVMAGRPWELKAPKILGVKLTGKMNGWTSPKDIILKLAGITTVKGGTGKIVEYFGDGVDTFSATGMGTICNMGAEIGATTSVFPFNKSMIEYLEATGRGKIADFAKLYHKDLLSADKDAEYDEVVEIDLNTLEPYINGPFTPDLATPVSKMKEVAVANNWPLDVRVGLIGSCTNSSYEDMSRSASIVKDAAAHGLKSKTIFTVTPGSEQIRATIERDGQLETFKEFGGIVLANACGPCIGQWDRRDIKKGDKNTIVSSYNRNFTSRNDGNPQTHAFVASPELVTAFAIAGDLRFNPLTDKLKDKDGNEFMLKPPHGDGLPQRGYDAGENTYQAPPADRSTVEVKVSPTSDRLQLLKPFKPWDGKDAKDMPILIKAVGKTTTDHISMAGPWLKYRGHLENISNNYMIGAINAENKKANCVKNVYTGEYKGVPDTARDYRDQGIKWVVIGDENFGEGSSREHAALEPRFLGGFAIITKSFARIHETNLKKQGLLPLNFKNPADYDKINPDDRIDILGLAELAPGKPVTMRVHPKNGKPWDAVLTHTFNDEQIEWFKYGSALNKIKADEKK
B9: Bol1-Strep [S. cerevisiae] / Isa2 [S. cerevisiae] (parent complex)
chain 1: B2 chain 1
chain 2: MQAKLLFTRLNFRRPSTTLRQFPLTCFLFHSKAFYSDLVTKEPLITPKRIINKTPGLNLSISERASNRLAEIYRNSKENLRISVESGGCHGFQYNLTLEPATKPDIKNDVKDKEFSDDLDDDDSKDIIYVLPEDKGRVIIDSKSLNILNNTTLTYTNELIGSSFKIINGSLKSSCGCGSSFDIEN

Variants of: B1
Assay: Strep-tag affinity purification with MS proteomics (spectral counts); parent: 16; read off a plot

screen value [%] | Variant
~45 | chain 1 H101C

Variants of: B2
Assay: Strep-tag affinity purification with MS proteomics (spectral counts); parent: 0; read off a plot

screen value [%] | Variant
~0 | chain 1 MFKRAMSTDGPVARTILKRLECGFPDYKNFAFGLYNDSHKHKGHAGVQGNVSAETHFRIEMVSKKFEGLKLPQRHRMVYSLLQDEMAQANGICALQLSLKTPQEYESKAK [chain 1 H93C]

Variants of: B3
Assay: as above

screen value [%] | Variant
~0 | chain 1 MFKRAMSTDGPVARTILKRLECGFPDYKNFAFGLYNDSHKHKGHAGVQGNVSAETHFRIEMVSKKFEGLKLPQRHRMVYSLLQDEMAQANGICALQLSLKTPQEYESKAK [chain 1 H93C]

Variants of: B4
Assay: as above

screen value [%] | Variant
~0 | chain 1 MFKRAMSTDGPVARTILKRLECGFPDYKNFAFGLYNDSHKHKGHAGVQGNVSAETHFRIEMVSKKFEGLKLPQRHRMVYSLLQDEMAQANGICALQLSLKTPQEYESKAK [chain 1 H93C]

Variants of: B5
Assay: as above

screen value [%] | Variant
~0 | chain 1 MFKRAMSTDGPVARTILKRLECGFPDYKNFAFGLYNDSHKHKGHAGVQGNVSAETHFRIEMVSKKFEGLKLPQRHRMVYSLLQDEMAQANGICALQLSLKTPQEYESKAK [chain 1 H93C]

Variants of: B6
Assay: Strep-tag affinity purification with MS proteomics (spectral counts); parent: 4; read off a plot

screen value [%] | Variant
~0 | chain 1 H93C

Variants of: B7
Assay: Strep-tag affinity purification with MS proteomics (spectral counts); parent: 0; read off a plot

screen value [%] | Variant
~0 | chain 1 MFKRAMSTDGPVARTILKRLECGFPDYKNFAFGLYNDSHKHKGHAGVQGNVSAETHFRIEMVSKKFEGLKLPQRHRMVYSLLQDEMAQANGICALQLSLKTPQEYESKAK [chain 1 H93C]

Variants of: B8
Assay: Strep-tag affinity purification with MS proteomics (spectral counts); parent: 3.5; read off a plot

screen value [%] | Variant
~1.5 | chain 1 MFKRAMSTDGPVARTILKRLECGFPDYKNFAFGLYNDSHKHKGHAGVQGNVSAETHFRIEMVSKKFEGLKLPQRHRMVYSLLQDEMAQANGICALQLSLKTPQEYESKAK [chain 1 H93C]

Variants of: B9
Assay: Strep-tag affinity purification with MS proteomics (spectral counts); parent: 0; read off a plot

screen value [%] | Variant
~0 | chain 1 MFKRAMSTDGPVARTILKRLECGFPDYKNFAFGLYNDSHKHKGHAGVQGNVSAETHFRIEMVSKKFEGLKLPQRHRMVYSLLQDEMAQANGICALQLSLKTPQEYESKAK [chain 1 H93C]

Source: paper PMC5014551 (2016)
